# Experimental data from PMC6113214, “Outer membrane lipoprotein RlpA is a novel periplasmic interaction partner of the cell division protein FtsK in Escherichia coli” (Scientific Reports, 2018).
# T1: FtsZ (E. coli, UniProt P0A9A6 1-383)
# T1 construct: FtsZ, tubulin homologue of the Z-ring; the species is told only of the protein in general; also called purified FtsZ
# T1 sequence (looked up): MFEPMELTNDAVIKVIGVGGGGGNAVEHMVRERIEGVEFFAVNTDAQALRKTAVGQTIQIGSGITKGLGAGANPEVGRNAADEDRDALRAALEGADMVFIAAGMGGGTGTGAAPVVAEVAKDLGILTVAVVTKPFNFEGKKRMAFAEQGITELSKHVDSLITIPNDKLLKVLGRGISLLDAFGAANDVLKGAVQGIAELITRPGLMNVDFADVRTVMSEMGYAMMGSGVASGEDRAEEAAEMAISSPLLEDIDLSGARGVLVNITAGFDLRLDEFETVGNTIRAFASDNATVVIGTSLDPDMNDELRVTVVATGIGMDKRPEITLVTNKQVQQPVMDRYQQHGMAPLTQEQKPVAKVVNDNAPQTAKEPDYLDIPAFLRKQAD
# B1: His10-FtsKN(220), N-terminal domain of the cell division protein FtsK (amino acids 1-220) (domain or fragment, E. coli, UniProt P46889 1-220, looked up)
# chain: MSQEYIEDKEVTLTKLSSGRRLLEALLILIVLFAVWLMAALLSFNPSDPSWSQTAWHEPIHNLGGMPGAWLADTLFFIFGVMAYTIPVIIVGGCWFAWRHQSSDEYIDYFAVSLRIIGVLALILTSCGLAAINADDIWYFASGGVIGSLLSTTLQPLLHSSGGTIALLCVWAAGLTLFTGWSWVTIAEKLGGWILNILTFASNRTRRDDTWVDEDEYEDD
# notes: FtsK of E. coli, N-terminal membrane anchor domain, amino acids 1-220 of the 1329 amino acid protein; also called WT FtsKN; not shown: His10, N-terminal, kept
# Biological target: T1, FtsZ
# Test: pull-down; His10-FtsKN bound to 100 uL Ni2+ IMAC resin (bait); 320 ug purified FLAG-RlpA or 250 ug purified FtsZ (prey); 4 C overnight; three washes in 20 mM Tris-HCl pH 7.0, 100 mM NaCl, 25 mM imidazole, 0.05% LDAO; elution with 1 M imidazole; Western blot; empty resin as control
# Conditions: both partners purified
binder,measurement,value
B1,binding result,binds
